Paper PMC4359074

Target: mono-nucleosome di-methylated at H3K4 (Xenopus)
Test: native gel or EMSA

Kd: 10 µM
Binder: TLYCFCQRVSFGEMVACDGPNCKYEWFHYDCVNLKEPPKGTWYCPECKIE (domain or fragment, modifications not checked) [GST-PHD_(Yng2)]
